# Data taken from the nanobody polyreactivity screen of Harvey et al. (2022).
# Assay: yeast display, Sf9 membrane polyspecificity reagent, FACS + sequencing; frameworks hold sequencing errors
# How it was run: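 Galactose induction of a Saccharomyces cerevisiae BJ5465 synthetic nanobody display library ran 36–48 hours. The cells were then stained for 1 hour at 4 °C with 10% biotinylated, detergent-solubilized Sf9 membrane reagent, pulled down on streptavidin microbeads and FACS-sorted into low and high (top ~1%) gates on expression and reagent-binding fluorescence. Labels for polyreactivity follow the gate of origin.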
row,Sequence,polyreactivity (PSR sort gate)
1,QVQLVESGGGLVQAGGSLRLSCAASGFILGYYAKGWSRQAPGKERELDAITSGDSTYYADSVKGRFTISRDTAKNTVYLQMNSLKPEDTAVYYCNAEASIERRYRGIIAVITRYDYWAQGTQVTVSS,high polyreactivity
2,QDQLVESGGGLVQAGGSLRLSCAASGFTFQDYAMGWYRPAPGKERELVAAISTSDGNTYYADSVKGRFTISRDNAKNTVYLQMNSLKPEDTAVYYCAAQRNYGWVKFYYWGQGTQVTVSS,high polyreactivity
3,QVQLEESGGGLVQAGGSLRLICAASGFIFLYYAMGWYRQAPGKERELVAAIDYSGGSTNYADSVKGRFTISRDNAKNTVYLQMHSLKPEDTAVYFFNAEYTWHRGYDYWGQGTQVTVSS,low polyreactivity
4,QVQLVESGGGLVQAGGSLRLSCAASGSTFTINVMGWYRQAPGKERELVAAINGGGRTNYADSVKGRFTISRDNAKNTVYLQMNSLKPEDTAVYYCATRYSHNSGFDYWGQGTQVTVSS,low polyreactivity
5,QVKLVESGGGLDKAGGSLRLSCAASGLIFYLYPKGWYRQAPGQERELVAAISRSGDTTYYADSVKGRFTISRDNAKNTVYLQMNSLKPEDTAVYYCAADDYYKFDYWGQGTQVTVSS,low polyreactivity
6,QVQLVESGGGLVQAGGSLRLSCAASGSIFYPYAMGRYRQAPGKERELVASIRSRRGTTFYADSVKGRFTISRDNAKNTVYLQMNSLKPEDTAVYYCAVDNWSSSYYWWVDKLGGSDYWGQGTQVTVSS,low polyreactivity
7,QVQLVESGGGLVQAGGSLRLSCAASGRIFSRYTMGCYRQAPGKERELVAAISSRGGSTYYADSVKGRFTISRDNAKNTVYLQMNSLKPEDTAVYYCNTPSYSGSSPYDHWGQGTQVTVSS,high polyreactivity
8,QVQLVESGGGLVQAGGSLRLSCAAYGITFSKNAKGWYRQAPGKERELVAAISRGGSSYYADSVKGRFTISRDNAKNTVYLQMNSLKPEDTAVYYCSAGWLRKYYYWGQGTQVTVSS,low polyreactivity
9,QVQLVESGGGLVHAGGSLRLSCAASGSTFPAYAMGWYRQAPGKERELVAGITRGGSTYYADSVKGRFTISRDNAKNTVYLQMNSLKPEDSAVYYCAAYVLPWRGRGQTEYGYWGQGTQVTVSS,low polyreactivity
10,QVQLVESGGGLVQAGGSLRLSCAASGITIVYYTMGWYIQAPGKERELVASITWDGGSTYYADSVKGRFTISRDNAKNTVYLQMNSLKPEDTAVYYCNRDRVSGGKYNYWGQGTQVTVSS,low polyreactivity
11,QVQLVESGGGLVQAGGSLRLSCAASGRIFYINDMGWYRQAHGKERELVAAISASGGSTYYADSVKGRFTISRDNAKNTVYLQMNSLKPEDTAVYYCAAVYFHPGYDLFDYWGQGTQVTVSS,low polyreactivity
12,QVQLVESGGGLVQAGGSLRLSCAASGSIFSYYAMGWYRQAPGKERELVATISVSGGNTYYADSVKGRFTISRDYAKNTVYLQMNSLKPEDTAVYYCAKYNWYRAWRYGYWGQGTQVTVSS,high polyreactivity
13,QVQLVESGGGLVQAGGSLRLSCAASGITFRRYAMGWYRQAPGKESELVAAITSSGGSTYYADSVKGRFTISRDNAKNTVYLLMISLKPEDTAVYYCAAAFFSQYYLYEYWGQGTQVTVSS,high polyreactivity
14,QVQLVESGGGLVQAGGSLRLSCAASGRTFEIYAMGWYRQEPGKERELVAAITSGGSTYYADSVKGRFTISRDNAKNTVYLQMNSLKPEDTAVYYCNAYLYYDAHGVDYWGQGTQVTVSS,high polyreactivity
15,QVQLVESGGGLVQAGGSLRLSCAASAITLDGNAMGWYIQAPGKERELVAAITSGGGTNYADSVKGRFTISRDNAKNTVYLEMNSLKQEDTAVYYCAETGRLLTSNYWGLGTQVTVSS,low polyreactivity
16,QVQLVESGGGLVQAGGSLRLSCAASGRTFPTYTMGWYRQAPGQERELVAAITRGGSTKYADSVKGRFTISRDNAKNTVYLQMNSLKPEDTAVYYCAAVYRYRHSFAYYRHEMDYWGQGTQVTVSS,low polyreactivity
17,QVQLVESGGGLVQAGGSLRLSCAASGSTFITYAMGWYRQAPGKERELVAAIRVIGGRTYYADSVKGRFTISRDNAKNTVYLQMNSLKPEDTAVYYCAVTGRGWGYDYWGQGTQVTVSS,high polyreactivity
18,QVQLVESGGGLVQAGGSLRLSCAASGRTFLVYAMGWYRQAPGKERELVAAISYSDGNTYYADSVKGRFTISRDHAKNTVYLQMNSLKPEDTAVYYCNAVTYGYPYDYWGQGTQVTVSS,low polyreactivity
19,QVQLVESGGGLVQAGGSLRLRCAASGSTFAYYAMGWYRQAPGKEREFVATITWTGGSTNYADSVKARFTISRDNAKNTVYLQMNSLKPEDTAVYYCAAAFVISYDYWGQGTQVTVSS,high polyreactivity
20,QVQLVESGGGLVQAGGSLRLSCAASGRTIANNAMGWYRQAPGKERQLVAVITNSGRTYYADSVKGRFTISRDNAKNTVYLQMNSLKPEDTAVYYCAVRYFDRGGSEHPVTFYWGQGTQVTVSS,high polyreactivity
21,QVQLVESGGGLVQAGGSLRLSCAASGSTFAYYAMGWYRQAPGKERELVARITASGGRTYYADSVKGRFTISRDNAKNTVYLQMNSLKPEDTAVYYCAKGRYVEVSYGAHYDYWGQGTQVTVSS,low polyreactivity
22,QVQLVESGGGLVQAGGSLRLSCAASGSTFARYTMGWYRQAPGKERELVAAITSNGVSTYYADSVKGRFTISRDNAKNTVYLQMNSLKPEDTAVYYCAAEYRPRYKRIWVVTKDYWGQGTQVTVSS,low polyreactivity

row,Sequence,polyreactivity (PSR sort gate)
1,QVQLVESGGGLVQAGGSLRLSCAASGLTFHWYTMGGYRQAPGKERELVAAISSRGGSTYYADSVKGRFTISRDNAKNTDYLQMNSLKPEDTAVYYCAKARRVGFTPIYENWGQGTQVTVSS,high polyreactivity
2,QDQLVESGGGLVQAGGSLRLSCAASGRTLYYYTMGWYRQAPGKERELVAAITWSGGSTYADSVKGRFTISRDNAKNTVYLQMNSLKPEDTAVYYCAAVRTSRFDYWGQGTQVTVSS,high polyreactivity
3,QVQLVESGGGLVQAGGSLRLSCAASGITFPGYAMGWYRQAPGKERELVAAISIGGITYYADSVKGRFTISRDNAKNTVYLQMNSLKPEDTAVYYCAKDVTDPSSRSDPSGDDYWGQGTQVTVSS,low polyreactivity
4,QVQLVESGGGLVQAGGSLRLSCAASGRTFYRYAMGWYRQAPGKERELVAAISRSGTTYYADSVKGRFTISRDNAKNTVYLQMNSLKPEDTAVYFCAAKPAGRQRGGDYWGQGTQVTVSS,high polyreactivity
5,QVQLVESGGGLVQAGGSLRLSCAASGSTFSRYAMGWYRQAPGKERELVAAITSNGGRTYYADSVKGRFTISRDNAKNTVYLQMNSLKPEDTAVYYCAAVYYTEYYWGQGTQVTVSS,high polyreactivity
6,QVQLVESWGGLVQAGGSLRLSCAASGSTFQPYAMGWYRQAPGKERELVAAIRSIAGSTYYADSVKGRFTISRDNAKITVYLQMNSLKPEDTAVYYCAADWWRVEMDYWGQGTQVTVSS,low polyreactivity
7,QVQLVESGGGLVQAGGSLRLSCAASGRIFRGYAMGWYRQAPGKERELVAAIDTDTGITYYADSVKGRFTISRDNAKNTVYLQMNSLKPEDTAVYYCAAETYYAVSTGYYFDYWGQGTQVTVSS,high polyreactivity
8,QVQLVESGGGLVQAGGSLRLSCAASGSTFSHNAMGWYREATGKERELVAAITAGGITYYADSVKGRFTISRDNAKNTVYLQMNSLKPEETAVYYCAGDFWPSGRGVAFDYWGQGTQVTVSS,low polyreactivity
9,QVQLVESGGGLVQAGGSLRLSCAASGFIFDYYAMGWYRQAPGKERELVAAITSRSGSTYYADSVKGRFTISRDNAKNTVYLQMNSLKPEDTAVYYCARRFKYGSTAWRFYYWGQGTQVSVSS,high polyreactivity
10,QVQLVESGGGLVQAGGSLRLSCAASGITFYVYDMGWYRQAPGKERELVAAISWSGGSTYYADSVKGRFTISRDNAKNTVYLQMNSLKPEDTAVYYCAAEVEYWYELYDYWGQGTQVTVSS,high polyreactivity
11,QVKLVESGGGLVQAGGSLRLSCHASGFTFPYYAMGWYRQAPGKERELVAAISQIGDRTYYADSVKGRFTISRDNAKNTVYLQMNSLKPEDTAVYYCNGAGKVRKYGYWGQGTQVTVSS,high polyreactivity
12,QVQLVESGGGLVQAGGSLRLSCAASGFTFDTNAMGWYRLAPGKERELVAAISRIGGRPYADSVKGRFTISRDNAKNTVYLQMNSLKPEDTAVYYGAADTTGYPYGYDSWGQGTQVTVSS,low polyreactivity
13,QVQLVESGGGLVQAGGSLRISCAASGFIFPFYAMGWYRQAPVKERELVATITSGGSTNYADSVKGRFTISRDNAKNTVYLQMNSQKPEDTAVYYCAAVIVPYGPSTFRVVGLDYWGQGTQVTVSS,low polyreactivity
14,QVQLVESGGGLVQAGGSLRLSCAASGNTFGNYGMGWYRQAPGKEREFVAAITSRGTSTYYADSVKGRFTISRDNAKNTVYLQMNSLKPEDTAVYYCNARPRYKYPRYDYWGQGTQVTVSS,high polyreactivity
15,QVQLVESGGGLVQAGGSLRLSGAASGSTFYSYAMGWYRQAPGKERELVAAISGSGASTYYADSVKGSFTISRDNAKNTVYLLMNSLKPEETAVYYCAADKPGIFSRFDYWGQGTQVTVSS,low polyreactivity
16,QVQLVESGGGLVQAGGSLRLSCAASGFTFDYYAMGWYRQAPGKERELVAAINWSGAITYYADSVKGRFTISRDNAKNTVYLQMNSLKPEDTAVYYCAARWGKFYGRFYWGMDYWGQGTQVTVSS,high polyreactivity
17,QVQLVESGGGLVQAGGSLRLSCAASGRIFYLNAMGWYRQAPGKERELVAAITRSAASTHYADSVKGRFTISRDNAKNTVYLQMNSLKPEDTAVYYCAARFWYDYRHYDYWGQGTQVTVSS,low polyreactivity
18,QVQLVESGGGLVQAGGSLRLSCAASGFTFKRYAMGWYRQAPGKERELVAVISSGGSTYYADSVKGRFTISRDNAKNCVYLQMNRLKPEDTAVYYCNAYIGGSSWHTALDYWGQGTQVTVSS,high polyreactivity
19,QFQLVESGGGLVQAGGSLRLSCPAYGSNLSRYAMGWYRQSPGKVRELVATITRRGGSTFYADSVKGRFTISRDNAKNTVYLQMNSLKPDDTADYYCAVGRLFWGQGTQVTVSS,low polyreactivity
20,QVQLQESGGGLVHACGSLRPSCAASGSISDSWTMSWYRQAPGKEREFVAGITWGGTTNYADSVKGRFTISRDNAKNTVYLQMNSLKPEDSAVYYCNARQRTYYRTHRIRHKGNGYWGQGTQVTVSS,low polyreactivity
21,QVQLVESGGGLVQAGGSLRLSCAASGRTFYGYAMGWYRQAPGKERELVASIDGGGRTYYADSVKGRFTISRDNAKNTVYLQMNSLKPEYNGVYYCAKRSYQYGYPDGYGYWGQGTQVTVSS,low polyreactivity
